± gives the uncertainty stated by the source.
B1: 3'-5' exoribonuclease 1, residues 65 to 114; numbered along this chain, Q8IV48 (parent)
chain: VYKEIAITNGCINRMSKEELRAKLSEFKLETRGVKDVLKKRLKNYYKKQK

Variants of: B1
Test: abundance fitness (aPCA) (normalised: wild type 0, dead -1); higher = more abundant; growth selection in yeast, the domain comes from the species named
Details: Homo sapiens
VYKEIAITNGCISRMSKEELRAKLSEFKLETRGVKDVLKKRLKNYYKKQK [N13S] gave an abundance fitness of -0.272 ± 0.038.
In the case of VYKEIAITNGCIDRMSKEELRAKLSEFKLETRGVKDVLKKRLKNYYKKQK [N13D], the abundance fitness is reported as -0.259 ± 0.055.
For VYKEIAITNGCILRMSKEELRAKLSEFKLETRGVKDVLKKRLKNYYKKQK [N13L], the abundance fitness was -0.914 ± 0.043.
VYKEIAITNGCIQRMSKEELRAKLSEFKLETRGVKDVLKKRLKNYYKKQK [N13Q] gave an abundance fitness of -0.629 ± 0.051.
In the case of VYKEIAITNGCIWRMSKEELRAKLSEFKLETRGVKDVLKKRLKNYYKKQK [N13W], the abundance fitness is reported as -0.938 ± 0.049.
For VYKEIAITNGCIKRMSKEELRAKLSEFKLETRGVKDVLKKRLKNYYKKQK [N13K], the abundance fitness was -0.376 ± 0.048.
VYKEIAITNGCIERMSKEELRAKLSEFKLETRGVKDVLKKRLKNYYKKQK [N13E] gave an abundance fitness of -0.446 ± 0.05.
Variant VYKEIAITNGCIVRMSKEELRAKLSEFKLETRGVKDVLKKRLKNYYKKQK [N13V] has an abundance fitness of -0.764 ± 0.041.
Work on VYKEIAITNGCIYRMSKEELRAKLSEFKLETRGVKDVLKKRLKNYYKKQK [N13Y] yielded an abundance fitness of -0.437 ± 0.06.
In the case of VYKEIAITNGCIFRMSKEELRAKLSEFKLETRGVKDVLKKRLKNYYKKQK [N13F], the abundance fitness is reported as -0.961 ± 0.077.
VYKEIAITNGCIPRMSKEELRAKLSEFKLETRGVKDVLKKRLKNYYKKQK [N13P] showed an abundance fitness of -0.949 ± 0.065.
VYKEIAITNGCIARMSKEELRAKLSEFKLETRGVKDVLKKRLKNYYKKQK [N13A] showed an abundance fitness of -0.487 ± 0.037.
VYKEIAITNGCITRMSKEELRAKLSEFKLETRGVKDVLKKRLKNYYKKQK [N13T] gave an abundance fitness of -0.684 ± 0.051.
For VYKEIAITNGCIMRMSKEELRAKLSEFKLETRGVKDVLKKRLKNYYKKQK [N13M], the abundance fitness was -0.801 ± 0.057.
VYKEIAITNGCIRRMSKEELRAKLSEFKLETRGVKDVLKKRLKNYYKKQK [N13R] showed an abundance fitness of -0.415 ± 0.035.
VYKEIAITNGCIIRMSKEELRAKLSEFKLETRGVKDVLKKRLKNYYKKQK [N13I] gave an abundance fitness of -0.65 ± 0.078.
For VYKEIAITNGCINHMSKEELRAKLSEFKLETRGVKDVLKKRLKNYYKKQK [R14H], the abundance fitness was -0.166 ± 0.057.
Work on VYKEIAITNGCINLMSKEELRAKLSEFKLETRGVKDVLKKRLKNYYKKQK [R14L] yielded an abundance fitness of -0.43 ± 0.037.
In the case of VYKEIAITNGCINSMSKEELRAKLSEFKLETRGVKDVLKKRLKNYYKKQK [R14S], the abundance fitness is reported as -0.129 ± 0.036.
For VYKEIAITNGCINYMSKEELRAKLSEFKLETRGVKDVLKKRLKNYYKKQK [R14Y], the abundance fitness was -0.826 ± 0.059.
VYKEIAITNGCINMMSKEELRAKLSEFKLETRGVKDVLKKRLKNYYKKQK [R14M] gave an abundance fitness of -0.298 ± 0.05.
Work on VYKEIAITNGCINDMSKEELRAKLSEFKLETRGVKDVLKKRLKNYYKKQK [R14D] yielded an abundance fitness of -0.308 ± 0.052.
VYKEIAITNGCINVMSKEELRAKLSEFKLETRGVKDVLKKRLKNYYKKQK [R14V] gave an abundance fitness of -0.65 ± 0.036.
For VYKEIAITNGCINNMSKEELRAKLSEFKLETRGVKDVLKKRLKNYYKKQK [R14N], the abundance fitness was -0.151 ± 0.055.
Variant VYKEIAITNGCINTMSKEELRAKLSEFKLETRGVKDVLKKRLKNYYKKQK [R14T] has an abundance fitness of -0.226 ± 0.045.
For VYKEIAITNGCINFMSKEELRAKLSEFKLETRGVKDVLKKRLKNYYKKQK [R14F], the abundance fitness was -0.881 ± 0.065.
Variant VYKEIAITNGCINCMSKEELRAKLSEFKLETRGVKDVLKKRLKNYYKKQK [R14C] has an abundance fitness of -0.315 ± 0.041.
Variant VYKEIAITNGCINAMSKEELRAKLSEFKLETRGVKDVLKKRLKNYYKKQK [R14A] has an abundance fitness of -0.115 ± 0.035.
With VYKEIAITNGCINPMSKEELRAKLSEFKLETRGVKDVLKKRLKNYYKKQK [R14P] the abundance fitness was -0.908 ± 0.051.
VYKEIAITNGCINQMSKEELRAKLSEFKLETRGVKDVLKKRLKNYYKKQK [R14Q] gave an abundance fitness of -0.072 ± 0.048.
Variant VYKEIAITNGCINGMSKEELRAKLSEFKLETRGVKDVLKKRLKNYYKKQK [R14G] has an abundance fitness of -0.15 ± 0.035.
Work on VYKEIAITNGCINIMSKEELRAKLSEFKLETRGVKDVLKKRLKNYYKKQK [R14I] yielded an abundance fitness of -0.724 ± 0.07.
VYKEIAITNGCINWMSKEELRAKLSEFKLETRGVKDVLKKRLKNYYKKQK [R14W] gave an abundance fitness of -0.941 ± 0.053.
In the case of VYKEIAITNGCINEMSKEELRAKLSEFKLETRGVKDVLKKRLKNYYKKQK [R14E], the abundance fitness is reported as -0.359 ± 0.048.
For VYKEIAITNGCINRDSKEELRAKLSEFKLETRGVKDVLKKRLKNYYKKQK [M15D], the abundance fitness was -0.981 ± 0.098.
Variant VYKEIAITNGCINRKSKEELRAKLSEFKLETRGVKDVLKKRLKNYYKKQK [M15K] has an abundance fitness of -0.326 ± 0.082.
In the case of VYKEIAITNGCINRGSKEELRAKLSEFKLETRGVKDVLKKRLKNYYKKQK [M15G], the abundance fitness is reported as -0.975 ± 0.12.
In the case of VYKEIAITNGCINRCSKEELRAKLSEFKLETRGVKDVLKKRLKNYYKKQK [M15C], the abundance fitness is reported as -0.826 ± 0.088.
Variant VYKEIAITNGCINRASKEELRAKLSEFKLETRGVKDVLKKRLKNYYKKQK [M15A] has an abundance fitness of -0.678 ± 0.071.
Variant VYKEIAITNGCINRHSKEELRAKLSEFKLETRGVKDVLKKRLKNYYKKQK [M15H] has an abundance fitness of -0.873 ± 0.062.
VYKEIAITNGCINRPSKEELRAKLSEFKLETRGVKDVLKKRLKNYYKKQK [M15P] showed an abundance fitness of -1 ± 0.092.
VYKEIAITNGCINRYSKEELRAKLSEFKLETRGVKDVLKKRLKNYYKKQK [M15Y] gave an abundance fitness of -0.645 ± 0.05.
VYKEIAITNGCINRWSKEELRAKLSEFKLETRGVKDVLKKRLKNYYKKQK [M15W] gave an abundance fitness of -0.83 ± 0.12.
Variant VYKEIAITNGCINRNSKEELRAKLSEFKLETRGVKDVLKKRLKNYYKKQK [M15N] has an abundance fitness of -0.789 ± 0.071.
VYKEIAITNGCINRTSKEELRAKLSEFKLETRGVKDVLKKRLKNYYKKQK [M15T] showed an abundance fitness of -0.414 ± 0.057.
For VYKEIAITNGCINRISKEELRAKLSEFKLETRGVKDVLKKRLKNYYKKQK [M15I], the abundance fitness was -0.635 ± 0.048.
VYKEIAITNGCINRRSKEELRAKLSEFKLETRGVKDVLKKRLKNYYKKQK [M15R] showed an abundance fitness of -0.718 ± 0.081.
In the case of VYKEIAITNGCINRFSKEELRAKLSEFKLETRGVKDVLKKRLKNYYKKQK [M15F], the abundance fitness is reported as -0.544 ± 0.052.
VYKEIAITNGCINRESKEELRAKLSEFKLETRGVKDVLKKRLKNYYKKQK [M15E] gave an abundance fitness of -1.05 ± 0.18.
For VYKEIAITNGCINRQSKEELRAKLSEFKLETRGVKDVLKKRLKNYYKKQK [M15Q], the abundance fitness was -0.885 ± 0.12.
Variant VYKEIAITNGCINRLSKEELRAKLSEFKLETRGVKDVLKKRLKNYYKKQK [M15L] has an abundance fitness of -0.317 ± 0.046.
VYKEIAITNGFINRMSKEELRAKLSEFKLETRGVKDVLKKRLKNYYKKQK [C11F] showed an abundance fitness of -0.104 ± 0.044.
